Source: paper PMC5846730

Biological target: GbnD4 DHD domain (Burkholderia gladioli BCC0238)
Assay: NMR titration

GbnD5 apo-DH-ACP di-domain (domain or fragment)
average apparent KD of the Val19-Glu30 and Ala49-Arg60 regions: 7 to 15 µM
